In the DeepSol protein solubility set:

test: soluble on expression in E. coli; label from the status in PepcDB or PDB records

Sequence | soluble on expression in E. coli
MRHSSYEHVPNRIIPPHIPIDARRGDFDRRPGPPVPSMRAAILGGSDPYHGFQPVVDTYNGPVVDNSRRRGFDKGPFGEDLTTMGRNEGRQPLLRHPRLDFEHIGGEMEIARSRSASPEIQVISARSVRDDRRRDKPRQRRSSRSRSRDRGDKDHRKPAASRRSDRESTYRERLGSSSGPAAAPDIIRDGMVWANDNYFEFLSFYIEVLNEKLRSSVDRDVKGIREIREVITPATEPEKDRIVLPPNFNRSDRERMLHCDTTITGLPTAIFFGSGYGPREHYAKYSAAKDFFDKCLKIRVMDDELHAAIGEWPRLDRTFKTQFKVNISKSVNAVILLIKRMANEQLPPGFMTMRTLPIDIIDRFKFLLRMVVADVYYQGTESSMAVPKALETGYNTQPYPPNQYPLDTDIRRPSERPSNGPSAEEAARVRDQEIKEQVARELEKRQKVMEQEIRAKILEEERARIQGEAEREKKLELMKAEEQKYQKEKEMKEFEEQQKKAMMTKQVEDDFNVMVEQLEKMFVEVRSKGLNHILDMIYGSATFKTIQLYSSTLTSLSFEQKQKLVQDLRSLLDSVTMGMKVAAVAQMSQAQNPIQGGLFQHQQQQQQPMMSGGGGFVSGVQVVPMQVPMQSYQMPQMQIHHQAFPQPQQLNTTPLLSSSVPMRRDEVRRVTVGDMRLRSLSRSEQRDLRVGNKIIAQDSKTGTWTLATVVKIREDRVTVSVANGTWKKDIDDLYKEDDGSLVY | not soluble
AIANSLVRRSAQQLSLWRTYCIKHNASEAASPGRNAGRPNYEEFIGRHQRQAQCSIVVQVSSEKSYEELYNYCSSFGSIMGAHHYCVRQDETLHYILLEYATSDEAAAAIGAGVTNGELSGVPVRSPFLWFRAAGGGRRSPKLVANTAPALLSLDGTRQVDQRHLLGLLRGAADIEEQVQQLYEHTRLNELGIRMRFLAALQVQQAIAGMFPAAQAQPFGSSVNGFGRMGCDLDLILRFDSDMGAKIPLEAAVPSRLVYHTKENLSNGRSQTQRHMECFGDMLHLFLPGVCHVRRILQARVPIIKYHHEHLDLEVDLSMSNLTGFYMSELLYMFGEMDPRVRPLTFTIRRWAQTCGLTNPSPGRWISNFSLTCLVMFFLQQLRQPILPTIGALAKAAEPGDSRVTEDGINCTFTRNVDRLGFRSRNQSSLSELLLQFFEFYSQFDFHNRAISLNEGKPLSKPDHSAMYIVNPLEQLLNVSKNVSLEECERLRIEVRNAAWVLESEVENASVPEGDGQELSCGLLNLFKHPEKAVIRPNMFFKPRMVEVSDLFEQKEAGATSSSTPPTPAITYKSASVRQQVQSIKAATRSELKQLRGSGSSVPTSSPNNRRRS | soluble
PGSEFELGNKGNNILNSNESRLNVNENNILREKFENYARIVFQFNNSRQANGNFDIANEFISILSSANGTRNAQLLESWKILESMKSKDINIVEVGKQYLEQQFLQYTDNLYKKNMNEGLATNVNKIKSFIDTKLKKADKSWKISNLTVINGVPIWALIFYLLRAGLIKEALQVLVENKANIKKVEQSFLTYFKAYASSKDHGLPVEYSTKLHTEYNQHIKSSLDGDPYRLAVYKLIGRCDLSRKNIPAVTLSIEDWLWMHLMLIKEKDAENDPVYERYSLEDFQNIIISYGPSRFSNYYLQTLLLSGLYGLAIDYTYTFSEMDAVHLAIGLASLKLFKIDSSTRLTKKPKRDIRFANILANYTKSFRYSDPRVAVEYLVLITLNEGPTDVELCHEALRELVLETKEFTVLLGKIGRDGARIPGVIEERQPLLHVRDEKEFLHTITEQAARRADEDGRIYDSILLYQLAEEYDIVITLVNSLLSDTLSASDLDQPLVGPDDNSETNPVLLARRMASIYFDNAGISRQIHVKNKEICMLLLNISSIRELYFNKQWQETLSQMELLDLLPFSDELSARKKAQDFSNLDDNIVKNIPNLLIITLSCISNMIHILNESKYQSSTKGQQIDSLKNVARQCMIYAGMIQYRMPRETYSTLINIDVSL | soluble
MAKNSPQDLINREIFSTNLNMLMAKKNIKQIDIHNKLGIPKSTITGYVKGRSLPTAGNVQKLADFFGVLKSDIDPRFDSNNIETNSNIIPSTLQKVTSTLSQLEHKRQLNVLDYAETQLEQQNTVEEPQATYYTYNYYDHAASAGTGQYLNDVQVETIELPVDYDADFVIPVYGDSMEPEYHSGDYVFIKLSINLSDGDIGVFEYYGDAYIKQLVINDSGAFLHSLNDKYDDILIDRDSDFRIIGEVIGSFTSKS | not soluble
GMILKTNLFGHTYQFKSITDVLAKANEEKSGDRLAGVAAESAEERVAAKVVLSKMTLGDLRNNPVVPYETDEVTRIIQDQVNDRIHDSIKNWTVEELREWILDHKTTDADIKRVARGLTSEIIAAVTKLMSNLDLIYGAKKIRVIAHANTTIGLPGTFSARLQPNHPTDDPDGILASLMEGLTYGIGDAVIGLNPVDDSTDSVVRLLNKFEEFRSKWDVPTQTCVLAHVKTQMEAMRRGAPTGLVFQSIAGSEKGNTAFGFDGATIEEARQLALQSGAATGPNVMYFETGQGSELSSDAHFGVDQVTMEARCYGFAKKFDPFLVNTVVGFIGPEYLYDSKQVIRAGLEDHFMGKLTGISMGCDVCYTNHMKADQNDVENLSVLLTAAGCNFIMGIPHGDDVMLNYQTTGYHETATLRELFGLKPIKEFDQWMEKMGFSENGKLTSRAGDASIFLK | soluble
MGSDKIHHHHHHMSNAKRLLVSDMKMGVDISENELLRQSEGLLQRLLFDHTTQRNIFWATDDYTTLGDAYKYDAPITTDSITGEHDTVIQPRVLKSKEEQANRTKDKAEVFTPSWVCNAQNNLIDEAWFGRKDVFNIEQPETKTWIATTEPITFPEGKTWKDYVCSTRMEITCGEAPYLVSRYDTTTGEFIPIPQRIGMLDRKLRIISENTSSTGEWLKMAQKAYKNIYAYEWQGDNLLLAREALLITFIEYYEEKFGKRPLDKSIEYIAYIISWNVWQMDGLKGVVPNSCTHGVSVLPDDLFESMEELILCPGCQNESIKKHNGTYCLIRDWGCKDPKTGENNRKIRFVDLIKNNI | not soluble
MSLYISSALGPVDSGNKKEIEVEIPKGSSTSKIGEILEEKGAVKSGTVFSFYTKAKSKNLQAGTYLLNPSMSAKDVMEQMSSGNVHRPALYKVTIKEGAQVTEIAETVANELKWNKDDVVRQLNDKAFIQKMQQKYPKLLTDKIFDSNIKYPLEGYLYPATYSFYKKDTTLEEVVIPMLEKTNAIIVQNEAKMKAKNWDVHQLLTLSSLIEEEATGFTDRQKISSVFYNRLAKGMPLQTDPTVLYALGKHKQRVLYEDLKVNSPYNTYVVKGLPVGPIANSGKHSVEAALEPTQTDYYYFLAAPTGEVYYAKTLEEHNALKQKYITKKQEGHHHHHH | soluble
MSLRFDFHTHTVFSDGELIPAELVRRARVLKHRAIAITDHADFSNYKELIEKTTIAKEELKKYWDDIIVIVGVELTHIPPKSIPKMAKKAKDLGAEIVVVHGETVVEPVEEKTNYYASISEDVDILAHPGFIDKETAENLKENDIFVEITSRRGHNITNGYVANIAREFGLKTLINTDTHAPEDLIDDEFAKKVGLGAGLTNKELENTLLHYPKELLKREGHHHHHH | soluble
MGSDKIHHHHHHMFKSTLNSIIRRPLKGFQLLRGADSSNTRPQSPRASARDVTEKQILRTPSAPTAIPLREIIYRVPSLFPRPLEDSVKDFRDFIKNEDAFQTELLKTLPFYPTPSESKTARLIRTVVDDEGNYINEFCIRPRKTSVPEADLKHLVFIHGYGAGLGFFIKNFEDIPLLDNEWCIHAIDLPGYGFSSRPKFPFEYPRDNIHSVQDWFHERIHTWFSKRNLLNRPEKNIVMAHSLGSYLMALYLQKYKESPSFKKLILCSPAGVSYRDFNNTASEVEKWKPPPWWYVKLWDRNISPFTLVRNFRQLGSKITSGWSYRRFKHILNGDPEQSKRFEALHRYAYAIFNKRGSGEYLLSFALKCGGEPRLSLEQQLFDGKKSDILKNSNCDWLWLYGDDDWMDVNGGLRVSRFLKEKLKQKSNVIIVPHSGHHLYLDNYKFFNNILTKEMQKI | not soluble
GPGSMRSASAYGLDGQARSLCSLYHPSLNSQECHRFLIGTANPSADNKIHLIEYQDDTKSLECATVWSHNDPVMGLWCSPSLSADSLLAVSSLRKLVVFQISENVLNEPKCIATMNKNYSRVLWDLDGLQREFRAVHQNTLTTVFLSSSKLGSETVNYTSSGGFIRCAALAPYDPNLCLISCDSDGLQLVDLRSKKASSFATTKYSHGFGYTTAVDFDRLKPGQFLSAGTDGYVYIHDIRYNTSCSLAILRHMKAHEHAVQSCSFNSFRDELVLSCSSDQTLKLWDVEHNNEPKCLRRLADYGDSVVALCWSGNSPWVFAGLSFNGKLLVDTVPNEKKMSILLDEKKWCET | not soluble
MSITQYLTEEHRKCDQIYAEVEKAVNEGNWEKAKELFKEFKEKTLLHFKKEEEVLFPEFEQRTGIVMGPTQVMRMEHDQARELLERMEKALEEKNKDEFLSLGESLMILIQQHNMKEEQILYPMSDQNLNAEKMVSKMAELGEV | not soluble
MCGRYALFSTPETLRETFGLTTAPVEPTYNAAPSQSLPVILDTEPTETVRARWGLVPSWSDGPQSAPDPINARAETLTETRHFQAAYEHRRCLVPVDGFYEWRDEDGATVPYFVSRTDGAPFLLAGLWETWTPEQTQTGLGEFTGDDGPSRDPETVRSFTVVTTQPNAFLADYHHRMAVVLTPAQGQRWLTDDDPTDLFTPGAFDLQAWRVSTAVNDPTVDRPALVEPALEHHHHHH | not soluble
MGHHHHHHSHMQHLENSSLFEGSLSKNLSLNSQALKENLYYEAGKMLAISLVHGGPSPGFFSKTLFNCLVYGPENTQPILDDVSDFDVAQIIIRINTATTVADLKSIINECYNYLELIGCLRLITTLSDKYMLVKDILGYHVIQRVHTPFESFKQGLKTLGVLEKIQAYPEAFCSILCHKPESLSAKILSELFTVHTLPDVKALGFWNSYLQAVEDGKSTATMEDILIFATGCSSIPPAGFKPTPSIECLHVDFPVGNKCNNCLAIPITNTYKEFQENMDFTIRNTLRLEKEESSHYIGH | not soluble
MSQTKIEWADKVWNPVSGCTKISEGCQNCYAERMSKRLAGRCGYPAEEPFKVTPHPEKLGEPLKWRKPLRIFVNSMSDLFHADVPDKFIINVLSMIAEASHHTFLILTKRPERMRELLNHDTIANDVWLQTSRGVNAERSPWPLPNLWLGVSAENQAAADERIPILLQTPAAVRFVSVEPMLSEVNLSRYLKRPICKHWGRNGDPNIYGRYFWGKQALVGAGWVGIDWVICGGETGPGARPMHPVWVRDLRDQCRVAGTPFFFKSFGEYVRVGECMNEEDDEEFYSKSSAAGTNVQRLNLQGGMGYHGPKSIYMQRIGKKRAGRELDGRTWEEFPLEHHHHHH | not soluble
MNPLFFLASPFLYLTYLIYYPNKGSFVSKPRNLQKMSSEPFKNVYLLPQTNQLLGLYTIIRNKNTTRPDFIFYSDRIIRLLVEEGLNHLPVQKQIVETDTNENFEGVSFMGKICGVSIVRAGESMEQGLRDCCRSVRIGKILIQRDEETALPKLFYEKLPEDISERYVFLLDPMLATGGSAIMATEVLIKRGVKPERIYFLNLICSKEGIEKYHAAFPEVRIVTGALDRGLDENKYLVPGLGDFGDRYYCV | not soluble
